Reference: the DeepSol protein solubility set

Assay: soluble on expression in E. coli; label from the status in PepcDB or PDB records

| Sequence | soluble on expression in E. coli |
| --- | --- |
| MGSDKIHHHHHHMSSSTTPDLLYPSADKVAEPSDNIHGDELRLRERIKDNPTNILSYFQLIQYLETQESYAKVREVYEQFHNTFPFYSPAWTLQLKGELARDEFETVEKILAQCLSGKLENNDLSLWSTYLDYIRRKNNLITGGQEARAVIVKAFQLVMQKCAIFEPKSSSFWNEYLNFLEQWKPFNKWEEQQRIDMLREFYKKMLCVPFDNLEKMWNRYTQWEQEINSLTARKFIGELSAEYMKARSLYQEWLNVTNGLKRASPINLRTANKKNIPQPGTSDSNIQQLQIWLNWIKWERENKLMLSEDMLSQRISYVYKQGIQYMIFSAEMWYDYSMYISENSDRQNILYTALLANPDSPSLTFKLSECYELDNDSESVSNCFDKCTQTLLSQYKKIASDVNSGEDNNTEYEQELLYKQREKLTFVFCVYMNTMKRISGLSAARTVFGKCRKLKRILTHDVYVENAYLEFQNQNDYKTAFKVLELGLKYFQNDGVYINKYLDFLIFLNKDSQIKTLFETSVEKVQDLTQLKEIYKKMISYESKFGNLNNVYSLEKRFFERFPQENLIEVFTSRYQIQNSNLIKKLELTYMYNEEEDSYFSSGNGDGHHGSYNMSSSDRKRLMEETGNNGNFSNKKFKRDSELPTEVLDLLSVIPKRQYFNTNLLDAQKLVNFLNDQVEIPTVESTKSG | not soluble |
| MRKVTAAVMASTLAFSFLSHAAEVVTSDNWHPGDGATQRSAQNHMFDGISLTEHQRQQMRDLMQQARHEQPPVNVSEMETMHRLVTAEKFDESAVRAQAEKMAQEQVARQVEMARVRNQMYRLLTPEQQAVLNEKHQQRMEQLRDVAQWQKSSSLKLLSSSNSRSQLEHHHHHH | not soluble |
| MAHHHHHHMRMSLTTRRPFCPVLLNIGSSRAVTLSHFHAKVCPSITATVKQTIRELDDEASPNHQRRQESCFSSGELRLRPYGFSPERPQLQHESWSCAWHSYLNAVRLRGEVSAAGVAPLPPTATSANSTSHNDDEFFPMTGTLTLPVPVVVPTSNNEPSNETIMMEFFRVDAFIPVRVQMYHVMRRLIKMQAVWNNIVAIGIVVPTHEVEYFISAARAAHASDGERTPHALLSRKPSVLVYDPEGLRFQAPESKRLRK | not soluble |
| MVAKKWVYYFGGGNADGNKNMKELLGGKGANLAEMVNLGIPVPPGFTITTEACKTYQETETIPQEVADQVRENVSRVEKEMGAKFGDPANPLLFSVRSGAAASMPGMMDTVLNLGLNKVTVDAWVRRAPRLERFVYDSYRRFITMYADIVMQVGREDFEEALSRMKERRGTKFDTDLTASDLKELCDGYLELFELKTGCSFPQDPVMQLFAAIKAVFRSWGNPRATIYRRMNNITGLLGTAVNVQAMVFGNINDRSATGVAFSRSPSTGENFFFGEYLVNAQGEDVVAGIRTPQQINHSLSLRWAKAHGVGEEERRKRYPSMEEAMPENYRLLCDVRKRLENHYRDMQDLEFTVQDGRLWLLQCRNGKRTIHAAVRIAIDMVNEGLISREEAVLRIDPYQVDHLMHPNLEPGAEKANKPIGRGLAASPGAAVGQVVFDAESAKEWSGRGKKVIMVRLETSPEDLAGMDAACGILTARGGMTSHAAVVARGMGKCCVSGCGDMVIRGKSFKLNGSVFREGDYITIDGSKGLIYAGKLKLRSPDLKGSFQTILQWCQEMKRLGVRTNADTPADAAKARSFGAEGVGLCRTEHMFFEGSRINFIREMILADSASGRKAALDKLLPIQRADFVGILRAMRGLPVTIRLLDPPLHEFVPHDAAAQFELAQKLGMPAEKVRNRVNALHELNPMLGHRGCRLGITYPEIYNMQVRAIIEAAIAVSEEGSSVIPEIMVPLVGKKEELSLIREEVVKTAEAVITKSGKRVHYTVGTMIEVPRAAVTADSIAQKADFFSFGTNDLTQMGCGFSRDDAGPFLRHYGNLGIYAQDPFQSIDQEGIGELVRIAVTKGRRVKPMLKMGICGEHGGDPATIGFCHKVGLDYVSCSPFRVPVAIVAAAHASIKDRRAAMKARKGFAAKL | soluble |
| MGSDKIHHHHHHMKIQPLPPLNSLHAFESAARHLSFTLAAKELNVTQGAISRQVRLLEDYLGKALFTRTTRSMSLTPTGAQYYETVRECMLHLARATGDIRQWQGNQQVTVATSTAMASLWLLPKVSEFQSAHENIDLRIIAHDHVKDYARLDSDLALYYCNPPPKDMAVTPLFSEEIFLVCSPAYLARHPQLSSIEGLSSCTWLWLEDSQRDWVGWPEWFKRLGYEPMTPKHRVNINSYGMLIQSAISGQGVALAWGNLVDDALSTGALVKPNDVVLQTDAKFCLLESSTERGPRESVRLFRDWLMALPSVQK | not soluble |
| MAHHHHHHMPAVKWSSPVVRNELMSLTRLPAEMQRAAAAAVAAHKNAYSPYSNFSVGAALLHDDGSVTAGCNYENCTLQSCCAERCAIVRANVEGHRRANAVAVYGRSYGAATPTNPPPVDALCPPCGLCRQLLVEVADLSQNFEEFMVVLVALDAQRAKVVRLADLVPAKFGPADIGMDVTQLGCHPSA | not soluble |
| MSLSTLQDLEKTLWATADKMRANMDPAEYKHIVLGLIFLKYISDSFAGRRAELERKFSDAGDDYYLGGDDPTYLASELEERDYYKEVNVFWVPEPARWESLRAAAKQVDIGKRIDDALADIEAENPQLKNILDKRYARAQLPDGKLGELVDMISIIGFSSDANKARDLLGQVYEYFLGQFASAEGKRGGQFYTPASIVKTLVAVLNPHHGKVYDPCCGSGGMFVQSEKFIEAHGGKLGDVSIYGQESNPTTWRLAAMNLAIRGMDFNLGKEPADSFIRNQHSDLRADFVLANPPFNISDWWHGSLDGDSRWVYGTPPQGNANYAWLQHMLFHLKSSGRAGIVLANGSMSSSQNSEGDIRRAMVEADVVEVMVALPGQLFFNTQIPACLWFLAKQKNKRPGEVLFIDARKLGTNISRVQIELLDSDIESIAQTVANWRGVPLEVDGEIAEYADVAGFCRSVPLAEIAEHGHVLTPGRYVGAEAVEDDDEAFADKMQDLTALLGEQLAKGTELDQLIRHKLGGLGYEEGHHHHHH | soluble |
| MGKQRECLVIVEGYDPYVVKVSHDATSYSDYKTGRELPFTIIRMNGFSDSEGVYCCIASDKSMEDHTDEARALLKAYKVKPL | not soluble |
| MGSDKIHHHHHHSDAGKDRRKKQKQKERQEDDDNNDEPAGGSEMGESGKAKDEKERTSVLEKQAGKKGDDESSSSEEDKEDEDEKKDNSTVIIREENEIIKAEKELDEEKVDQFRQSRVLRFTRSADEARVLPTDAAKFKRDTITQTLKSKELNDGVQLPLDKKPTATASTN | not soluble |
| MPLTQTQRLINTYGASLKNGTISNEELIILLDPNTFTKSEGYVDPNAPVSDSNHSKMDAIKDFVLTIGPTLDSEILHQLTSRMIELSPPGDRNTFMRGSSLEKAFLAFEMAHYPTKAEEHFNSTRVRTEFPGENDIDNLKAVILNPIIAFFQSPPGTDEKLEKLIKLCTDYKEHLKPSLTDDANNLVNKKHAIVTNMLAALTDSTAPNNATKIKNMEQILTEENKATLKDRRDSFSGARFLESILHILSLGIYSKLTKGTFKFWKSHGEALSDNIEEVSKQQPGMK | not soluble |
| MSLGKKLKIFFIDDDIALGHICTRIMQEEGYEVLYQTSLNGAKACIVETHPDMIVLDVEIGNKNGIEAVPELKAIAPNTPILFISSHTNSQLVVQALSAGAVAYLKKPLEIDELIAYIKRYAISHPYQIKIGSLLLDTDTQLLCTKELRVIKQLSEAEYKLLKLLVAYKEQLVERRQIEEELWGKVNGNEQGINNLISKLRKYLSIDPTIELVTIPRNGYKLSVNLSEGHHHHHH | soluble |
| MGGSHHHHHHGMASALKAHMVRQHSRRQDLLPQLEAPSSLTPSSELSSPGQSELTNMDLAALFSDTPANASGSAGGSDEALNSGILTIDVTSVSSSLGGNLPANNSSLGPMEPLVLVAHSDIPPSLDSPLVLGTAATVLQQGSFSVDDVQTVSAGALGCLVALPMKNLSDDPLALTSNSNLAAHITTPTSSSTPRENASVPELLAPIKVEPDSPSRPGAVGQQEGSHGLPQSTLPSPAEQHGAQDTELSAGTGNFYLESGGSARTDYRAIQLAKEKKQRGAGSNAGASQSTQRKIKEGKMSPPHFHASQNSWLCGSLVVPSGGRPGPAPAAGVQCGAQGVQVQLVQDDPSGEGVLPSARGPATFLPFLTVDLPVYVLQEVLPSSGGPAGPEATQFPGSTINLQDLQ | not soluble |
| MIAELHIADDETAVKVLHLQRRAYTIEAQIIGSKALPPLHDTIASLQRCGERFFGYFQGERLVGAIACKRNGKTLRLCRLMVDPDCFRQGIASALLDFVIKQEPSISEIVVTTGSGNAPAIRFYERHGFRAIERIETPERIELTKLVKRSG | not soluble |
